Measured values as given in patent publication US20250388597A1, “BIFUNCTIONAL PHOTOCROSSLINKING PROBES FOR COVALENT CAPTURE OF PROTEIN-NUCLEIC ACID COMPLEXES IN CELLS” (UNIVERSITY OF SOUTHERN CALIFORNIA, priority 2022, published 2025).

Legend:
NFAT1 DNA binding domain [1] = target: T1, NFAT1 DNA binding domain (Homo sapiens, UniProt Q13469 Q13469:399-676); test: SPB-AAD 100 uM + UV365 photocrosslinking, SDS-PAGE
T1 sequence: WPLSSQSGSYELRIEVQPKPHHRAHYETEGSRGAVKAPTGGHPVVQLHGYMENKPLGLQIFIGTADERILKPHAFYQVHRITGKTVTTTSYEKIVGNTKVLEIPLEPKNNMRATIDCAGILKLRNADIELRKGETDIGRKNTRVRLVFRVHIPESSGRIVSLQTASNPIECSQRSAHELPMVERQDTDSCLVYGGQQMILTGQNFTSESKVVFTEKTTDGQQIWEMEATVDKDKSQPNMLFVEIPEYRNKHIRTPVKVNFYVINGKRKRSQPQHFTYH
Experimental: The UV illumination (as indicated by a positive sign) was carried out using a LED Chip (21.4 mm×21.4 mm, 365-370 nm, 30 Watt, sample distance 2 cm, exposure time 2-15 min at 4 degree C., here the exposure time is 15 min). Half of the binding reaction (7.5 μl) was run on a 10% PAGE 0.5×TBE gel and visualized by Cy5 fluorescence on DNA. The small amount of single stranded DNA is due to incomplete annealing. The higher smearing bands are most likely non-specific protein complexes. Neither of these experimental imperfections affected the main conclusion of this experiment because the double stranded-DNA bands and the specific NFAT-DNA complex bands (the middle sharp bands) are well defined and can be monitored without the interference of the other bands.
(§1) FIG. 12D depicts the other half of binding reaction from the above experiments (FIG. 12C) were added SDS loading dye (2% SDS), boil for 10 min, and run on SDS gel (4-15% gradient gel). The gel was visualized by Cy5 fluorescence for DNA.
FIG. 12E depicts further characterization of BFPX crosslinking of NFAT1/DNA complexes using different DNA substrates and staining techniques. […] The reactions were then analyzed by SDS PAGE under denaturing condition as described in FIG. 12D. […]

p53 DNA binding domain = p53 DNA binding domain (Homo sapiens, UniProt P04637 P04637:102-292); test: SPB-AAD, SPB-PEG4-AAD or SPB-Spermidine-AD + UV365 photocrosslinking, SDS-PAGE; conditions: chain copies: 4 stated; label: 5'-Cy5
[2] = target: Nkx2.5 DNA binding domain (homeodomain) (Homo sapiens, UniProt P52952 P52952:138-197); test: SPB-AAD, SPB-PEG4-AAD or SPB-Spermidine-AD + UV365 photocrosslinking, SDS-PAGE; none with formaldehyde or UV alone; conditions: label: 5'6-FAM
NFAT1 DNA binding domain [3] = target: T1, NFAT1 DNA binding domain; test: EMSA; 20 mM Hepes pH 7.6, 150 mM NaCl, 1 mM DTT, 12% glycerol, RT; formaldehyde diminished binding, BFPX probes did not; also photocrosslinked; conditions: label: 5'-Cy5 (or 5'6-FAM)
Experimental: FIG. 12C depicts Native EMSA assay of the effect of Formaldehyde (FA), BFPX probe (SPB-AAD, SPB-PEG4-AAD, and SPB-Spermidine-AD) at various concentrations, and UVA (365 nm) on the DNA binding by NFAT1. The binding reactions were performed in a buffer of 20 mM Hepes pH 7.6, 150 mM NaCl, 1 mM DTT, 12% glycerol. Typically protein and DNA are mixed to bind at room temperature for 30 min, followed by addition of BFPX probes for an additional 15 min and then UV illumination. In the case of FA treatment, the reaction time is 10 min at room temperature and then quenched by 250 mM glycine. […] Half of the binding reaction (7.5 μl) was run on a 10% PAGE 0.5×TBE gel and visualized by Cy5 fluorescence on DNA. […] Neither of these experimental imperfections affected the main conclusion of this experiment because the double stranded-DNA bands and the specific NFAT-DNA complex bands (the middle sharp bands) are well defined and can be monitored without the interference of the other bands.
as §1

MEF2A DNA binding domain [4] = target: T2, MEF2A DNA binding domain (Homo sapiens, UniProt Q02078 Q02078:2-95); test: SPB-AAD 100 uM + UV365 photocrosslinking, SDS-PAGE; no crosslink without probe; conditions: chain copies: 2; label: 5'6-FAM
MEF2A DNA binding domain [5] = target: T2, MEF2A DNA binding domain; test: 4AMT-SDAD + UV365 photocrosslinking, reversed by TCEP; conditions: chain copies: 2; label: 5'6-FAM

T2 sequence (Q02078 2-95, one chain of several): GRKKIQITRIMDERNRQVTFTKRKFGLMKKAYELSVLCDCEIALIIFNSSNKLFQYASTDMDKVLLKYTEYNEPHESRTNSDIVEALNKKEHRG
Sequence of Nkx2.5 DNA binding domain (homeodomain) (P52952 138-197, one chain of several): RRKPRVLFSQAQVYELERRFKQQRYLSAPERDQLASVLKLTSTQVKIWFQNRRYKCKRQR
Sequence of p53 DNA binding domain (P04637 102-292, one chain of several): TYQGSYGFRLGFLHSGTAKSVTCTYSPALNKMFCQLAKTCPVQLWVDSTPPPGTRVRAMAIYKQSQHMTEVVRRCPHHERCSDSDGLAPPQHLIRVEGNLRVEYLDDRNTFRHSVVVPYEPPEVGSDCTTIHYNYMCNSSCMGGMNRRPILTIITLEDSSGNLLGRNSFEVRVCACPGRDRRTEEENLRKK

B1: c2 NFAT 16-mer (dsDNA)
DNA 1: GTAGAGGAATTTCCTA
DNA 2: TAGGAAATTCCTCTAC
binding result (NFAT1 DNA binding domain [1]): binds

B2: p53 tetramer site 37-mer (dsDNA)
DNA 1: GCTAGCGTAGCAGGCATGCCTAGGCATGCCTGCTACG
DNA 2: CGTAGCAGGCATGCCTAGGCATGCCTGCTACGCTAGC
binding result (p53 DNA binding domain): binds

B3: Nkx2.5 site 19-mer (dsDNA)
DNA 1: ACTATTTTAAGAACGTGCT
DNA 2: AGCACGTTCTTAAAATAGT
binding result [2]: binds

B4: ARRE2 27-mer (dsDNA)
DNA 1: CCATAGAGGAAAATTTGTTTCATACAG
DNA 2: CTGTATGAAACAAATTTTCCTCTATGG
binding result (NFAT1 DNA binding domain [3]): binds

B5: MEF2 consensus site DNA (44-mer; only the core site printed) (dsDNA)
DNA 1: CTATAAATAG
DNA 2: CTATTTATAG
binding result (MEF2A DNA binding domain [4]): binds

B6: MEF2 site 16-mer (only the core site printed) (dsDNA)
DNA 1: CTATAAATAG
DNA 2: CTATTTATAG
binding result (MEF2A DNA binding domain [5]): binds
